Data published in patent EP4810607A2.

How the values were obtained:
[1] = molecular target: human IL-11 (native, secreted by human fibroblasts in culture) (human) (UniProt P20809); experiment: cell-based or functional assay
[2] = molecular target: mouse IL-11 (endogenous, produced by mouse fibroblasts in culture) (mouse) (UniProt P47873); experiment: cell-based or functional assay
UniProt P47873, sequence (P47873 22-199 limits assumed): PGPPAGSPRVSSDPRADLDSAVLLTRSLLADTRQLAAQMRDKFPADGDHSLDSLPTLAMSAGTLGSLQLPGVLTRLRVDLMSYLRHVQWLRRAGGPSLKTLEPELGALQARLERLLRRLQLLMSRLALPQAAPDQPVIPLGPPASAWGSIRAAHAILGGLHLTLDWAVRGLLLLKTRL

UniProt P20809, sequence (P20809 22-199): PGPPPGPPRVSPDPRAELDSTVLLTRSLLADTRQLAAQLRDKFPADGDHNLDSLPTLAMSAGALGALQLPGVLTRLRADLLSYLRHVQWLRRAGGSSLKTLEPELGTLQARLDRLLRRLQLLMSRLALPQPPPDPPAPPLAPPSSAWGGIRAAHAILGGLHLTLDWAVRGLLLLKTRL

percentage of activated fibroblasts normalised to non-stimulated cultures, TGFβ1-stimulated human atrial fibroblasts (fold of non-stimulated) [1]: 0.99 | percentage of activated fibroblasts relative to unstimulated cultures, TGFβ1-stimulated human atrial fibroblasts [1]: 0.89 fold | percentage of activated fibroblasts, TGFβ1-stimulated human atrial fibroblasts [1]: 28.3% | percentage of activated fibroblasts normalised to non-stimulated cultures, TGFβ1-stimulated mouse dermal fibroblasts (fold of non-stimulated) [2]: 1.24 | percentage of activated fibroblasts relative to unstimulated cultures, TGFβ1-stimulated mouse atrial fibroblasts [2]: 1.44 fold | percentage of activated fibroblasts, TGFβ1-stimulated mouse dermal fibroblasts [2]: 39.4%
Substance: neutralising anti-human IL-11 monoclonal antibody (Monoclonal Mouse IgG2A; Clone #22626; Catalog No. MAB218; R&D Systems, MN, USA)
